Assay results published in patent US20210324359A1, “USE OF GRAM-NEGATIVE LYSIN-ANTIMICROBIAL PEPTIDE (AMP) POLYPEPTIDE CONSTRUCTS IN TREATING ENDOCARDITIS” (priority 2020, published 2021).

Tests used:
[1] = test system: biofilms formed by P. aeruginosa strain ATCC 17646; conditions: strain ATCC 17646 biofilm
Experimental: Biofilms are then washed and treated with e.g., a 2-fold dilution series of the lysin in TSBg at e.g., 37° C. for 24 hours. After treatment, wells are washed, air-dried at e.g., 37° C. and stained with e.g., 0.05% crystal violet for 10 minutes.

[2] = test system: 15 P. aeruginosa isolates; test: MIC of GN370 in dog, human, rabbit and rat serum and CAAT; meropenem in CAMHB (Table 33); assay type: cell-based, Pseudomonas aeruginosa; conditions: for MIC90: 15 isolates; for MIC GN370: diluted CAAT media
[3] = test system: P. aeruginosa strain WC-453; test: Time-kill assay in HEPES or CAA with 25% human serum (Tables 7, 8); assay type: cell-based, Pseudomonas aeruginosa
Experimental: Exponential phase bacteria were then pelleted and resuspended in 1/5 culture volume of 25 mM HEPES, pH 7.4 before a final adjustment to an optical density corresponding to a McFarland value of 0.5. […] All treatments were incubated at 37° C. with aeration. At time points before the addition of lysin (or buffer control) and at 1 hour and 3 hours intervals thereafter, culture samples were removed for quantitative plating on CAA agar plates.

B1: GN370: lysin-AMP construct: MIDR, FIRL and NPTH moieties N-terminal to GN202 lysin (SEQ ID NO: 44) (protein)
chain: MIDRFIRLNPTHGPRRPRRPGRRAPVRTSQRGIDLIKSFEGLRLSAYQDSVGVWTIGYGTTRGVTRYMTITVEQAERMLSNDIQRFEPELDRLAKVPLNQNQWDALMSFVYNLGAANLASSTLLDLLNKGDYQGAADQFPHWVNAGGKRLDGLVKRRAAERALFLEPLS
4.0 Log10 CFU/mL: CAA/HuS (Log10 CFU/mL), 1 hr ([3]; CAA + 25% human serum, lysin 10 μg/ml, 1 hr, WC-453)
4 µg/mL: MIC90 ([2]; dog serum) | Serum MIC Dog ([2]; strain AR0246, dog serum) | Serum MIC Dog ([2]; strain PA24, dog serum)
0.5 µg/mL: MIC GN370 ([2]; strain ATCC 25668) | MIC GN370 ([2]; strain PA1) | MIC GN370 ([2]; strain PA2) | Serum MIC Human ([2]; strain PA19, human serum) | Serum MIC Rabbit ([2]; strain PA19, rabbit serum) | MIC GN370 ([2]; strain PA27) | MIC GN370 ([2]; strain PA453) | Serum MIC Dog ([2]; strain PA453, dog serum) | Serum MIC Human ([2]; strain PA453, human serum) | Serum MIC Rabbit ([2]; strain PA453, rabbit serum)
bactericidal activity: bactericidal activity (CFU decrease of 3-Log10, 3 hours after the addition of lysin) ([3]; 10 μg/mL, enumerated lysins in CAA/HuS, general statement for HEPES and CAA/HuS)
1 µg/mL: MBEC [1] | Serum MIC Human ([2]; strain AR0231, human serum) | Serum MIC Rabbit ([2]; strain AR0231, rabbit serum) | Serum MIC Dog ([2]; strain AR0241, dog serum) | Serum MIC Human ([2]; strain AR0241, human serum) | Serum MIC Rabbit ([2]; strain AR0241, rabbit serum) | MIC GN370 ([2]; strain AR0246) | Serum MIC Human ([2]; strain ATCC 25668, human serum) | MIC GN370 ([2]; strain ATCC 27853) | Serum MIC Human ([2]; strain ATCC 27853, human serum) | Serum MIC Dog ([2]; strain PA1, dog serum) | Serum MIC Dog ([2]; strain PA2, dog serum) | Serum MIC Human ([2]; strain PA2, human serum) | MIC GN370 ([2]; strain PA3) | MIC GN370 ([2]; strain PA19) | Serum MIC Dog ([2]; strain PA19, dog serum) | Serum MIC Human ([2]; strain PA20, human serum) | Serum MIC Human ([2]; strain PA23, human serum) | MIC GN370 ([2]; strain PA24)
<3.7 Log10 CFU/mL: CAA/HuS (Log10 CFU/mL), 3 hr ([3]; CAA + 25% human serum, lysin 10 μg/ml, 3 hr, WC-453)
2 µg/mL: MIC90 ([2]; human serum) | MIC90 ([2]; rabbit serum) | MIC GN370 ([2]; strain AR0231) | Serum MIC Dog ([2]; strain AR0231, dog serum) | MIC GN370 ([2]; strain AR0241) | Serum MIC Human ([2]; strain AR0246, human serum) | Serum MIC Rabbit ([2]; strain AR0246, rabbit serum) | Serum MIC Dog ([2]; strain ATCC 25668, dog serum) | Serum MIC Rabbit ([2]; strain ATCC 25668, rabbit serum) | Serum MIC Dog ([2]; strain ATCC 27853, dog serum) | Serum MIC Rabbit ([2]; strain ATCC 27853, rabbit serum) | Serum MIC Human ([2]; strain PA1, human serum) | Serum MIC Rabbit ([2]; strain PA1, rabbit serum) | Serum MIC Rabbit ([2]; strain PA2, rabbit serum) | Serum MIC Dog ([2]; strain PA3, dog serum) | Serum MIC Human ([2]; strain PA3, human serum) | Serum MIC Rabbit ([2]; strain PA3, rabbit serum) | Serum MIC Dog ([2]; strain PA20, dog serum) | Serum MIC Rabbit ([2]; strain PA20, rabbit serum) | MIC GN370 ([2]; strain PA22) | Serum MIC Dog ([2]; strain PA22, dog serum) | Serum MIC Human ([2]; strain PA22, human serum) | Serum MIC Rabbit ([2]; strain PA22, rabbit serum) | MIC GN370 ([2]; strain PA23) | Serum MIC Dog ([2]; strain PA23, dog serum) | Serum MIC Rabbit ([2]; strain PA23, rabbit serum) | Serum MIC Human ([2]; strain PA24, human serum) | Serum MIC Rabbit ([2]; strain PA24, rabbit serum) | Serum MIC Dog ([2]; strain PA27, dog serum) | Serum MIC Human ([2]; strain PA27, human serum) | Serum MIC Rabbit ([2]; strain PA27, rabbit serum)
1 to 2 µg/mL: MIC GN370 ([2]; strain PA20)
32 µg/mL: MIC90 ([2]; rat serum) | Serum MIC Rat ([2]; strain AR0241, rat serum) | Serum MIC Rat ([2]; strain AR0246, rat serum) | Serum MIC Rat ([2]; strain ATCC 27853, rat serum) | Serum MIC Rat ([2]; strain PA19, rat serum) | Serum MIC Rat ([2]; strain PA20, rat serum) | Serum MIC Rat ([2]; strain PA22, rat serum) | Serum MIC Rat ([2]; strain PA23, rat serum) | Serum MIC Rat ([2]; strain PA453, rat serum)
16 µg/mL: Serum MIC Rat ([2]; strain AR0231, rat serum) | Serum MIC Rat ([2]; strain ATCC 25668, rat serum) | Serum MIC Rat ([2]; strain PA1, rat serum) | Serum MIC Rat ([2]; strain PA2, rat serum) | Serum MIC Rat ([2]; strain PA3, rat serum) | Serum MIC Rat ([2]; strain PA24, rat serum) | Serum MIC Rat ([2]; strain PA27, rat serum)
